# Source: publication PMC9482650, “Quantitative fragmentomics allow affinity mapping of interactomes” (Nature Communications, 2022)
# T1: DLG3_1, Q92796
# T1 sequence (Q92796 125-227, limits assumed, looked up): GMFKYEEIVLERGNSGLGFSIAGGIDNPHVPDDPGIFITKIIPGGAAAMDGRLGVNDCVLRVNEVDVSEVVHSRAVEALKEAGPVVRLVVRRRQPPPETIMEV
# T2: FRMPD1, Q5SYB0
# T2 sequence (Q5SYB0 52-145, limits assumed, looked up): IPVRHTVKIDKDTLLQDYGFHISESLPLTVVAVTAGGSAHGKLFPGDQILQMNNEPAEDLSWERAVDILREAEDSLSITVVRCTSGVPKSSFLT
# T3: LIN7B, Q9HAP6
# T3 sequence (Q9HAP6 88-185, limits assumed, looked up): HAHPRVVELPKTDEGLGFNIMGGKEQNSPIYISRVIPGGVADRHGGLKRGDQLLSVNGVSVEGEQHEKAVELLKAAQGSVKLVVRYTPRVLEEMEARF
# T4: LNX2_2, Q8N448
# T4 sequence (Q8N448 334-432, limits assumed, looked up): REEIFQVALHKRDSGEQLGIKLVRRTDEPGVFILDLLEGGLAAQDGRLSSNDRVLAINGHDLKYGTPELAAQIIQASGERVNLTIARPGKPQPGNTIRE
# T5: MPP2, Q14168
# T5 sequence (Q14168 180-250, limits assumed, looked up): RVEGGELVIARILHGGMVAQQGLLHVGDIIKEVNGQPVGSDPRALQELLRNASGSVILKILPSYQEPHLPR
# T6: PCLO, Q9Y6V0
# T6 sequence (Q9Y6V0 4491-4600, limits assumed, looked up): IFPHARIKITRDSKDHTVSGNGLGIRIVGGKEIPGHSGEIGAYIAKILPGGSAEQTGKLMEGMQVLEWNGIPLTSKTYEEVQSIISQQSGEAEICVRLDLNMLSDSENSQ
# T7: PDZRN3_1, Q9UPQ7
# T7 sequence (Q9UPQ7 244-349, limits assumed, looked up): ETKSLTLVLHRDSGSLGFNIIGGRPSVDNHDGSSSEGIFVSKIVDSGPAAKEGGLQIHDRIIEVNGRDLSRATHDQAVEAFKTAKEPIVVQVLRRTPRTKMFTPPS
# T8: RHPN1, Q8TCX5
# T8 sequence (Q8TCX5 508-602, limits assumed, looked up): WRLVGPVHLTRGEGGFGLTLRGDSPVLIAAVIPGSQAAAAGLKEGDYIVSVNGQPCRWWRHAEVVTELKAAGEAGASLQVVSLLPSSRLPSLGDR
# T9: SNTA1, Q13424
# T9 sequence (Q13424 82-180, limits assumed, looked up): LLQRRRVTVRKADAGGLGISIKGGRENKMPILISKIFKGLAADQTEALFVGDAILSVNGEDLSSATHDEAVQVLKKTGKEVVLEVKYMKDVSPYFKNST
# T10: SNTG2, Q9NY99
# T10 sequence (Q9NY99 68-166, limits assumed, looked up): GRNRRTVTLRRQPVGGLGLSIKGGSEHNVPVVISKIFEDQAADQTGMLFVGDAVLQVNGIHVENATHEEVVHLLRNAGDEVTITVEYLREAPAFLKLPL
# T11: TX1BP3, O14907
# T11 sequence (O14907 10-122, limits assumed, looked up): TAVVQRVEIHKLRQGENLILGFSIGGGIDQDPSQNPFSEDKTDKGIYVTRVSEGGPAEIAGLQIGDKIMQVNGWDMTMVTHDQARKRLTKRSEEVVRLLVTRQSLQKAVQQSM
# Biological target: T1, DLG3_1, Q92796
# Experiment: holdup assay
# Set-up: key: below the threshold = too weak to quantify, mostly under pKd 3.1 to 4
# Conditions: plain residues with an end cap or a label only (N-terminal biotin on a linker: ado-ado)
row,Binder,pKd
1,"PELESKESVL [SLC1A4, P43007]",below the threshold

# Biological target: DLG4_2, P78352
# Sequence (P78352 155-259): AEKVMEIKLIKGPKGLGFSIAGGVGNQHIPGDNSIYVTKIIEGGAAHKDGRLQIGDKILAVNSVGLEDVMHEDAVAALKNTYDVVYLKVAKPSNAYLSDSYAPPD
# Experiment: holdup assay
# Set-up: key: below the threshold = too weak to quantify, mostly under pKd 3.1 to 4
# Conditions: plain residues with an end cap or a label only (N-terminal biotin on a linker: ado-ado)
row,Binder,pKd
1,"PELESKESVL [SLC1A4, P43007]",3.91

# Biological target: DLG4_3, P78352
# Sequence (P78352 306-403): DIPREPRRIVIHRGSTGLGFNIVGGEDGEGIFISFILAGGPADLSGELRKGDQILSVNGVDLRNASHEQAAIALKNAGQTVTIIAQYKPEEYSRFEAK
# Experiment: holdup assay
# Set-up: key: below the threshold = too weak to quantify, mostly under pKd 3.1 to 4
# Conditions: plain residues with an end cap or a label only (N-terminal biotin on a linker: ado-ado)
row,Binder,pKd
1,"PELESKESVL [SLC1A4, P43007]",below the threshold

# Biological target: T2, FRMPD1, Q5SYB0
# Experiment: holdup assay
# Set-up: key: below the threshold = too weak to quantify, mostly under pKd 3.1 to 4
# Conditions: plain residues with an end cap or a label only (N-terminal biotin on a linker: ado-ado)
row,Binder,pKd
1,"PELESKESVL [SLC1A4, P43007]",below the threshold

# Biological target: FRMPD2_1, Q68DX3
# Sequence (Q68DX3 770-861): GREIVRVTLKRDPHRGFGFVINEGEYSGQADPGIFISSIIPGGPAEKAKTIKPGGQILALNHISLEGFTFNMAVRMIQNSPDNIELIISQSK
# Experiment: holdup assay
# Set-up: key: below the threshold = too weak to quantify, mostly under pKd 3.1 to 4
# Conditions: plain residues with an end cap or a label only (N-terminal biotin on a linker: ado-ado)
row,Binder,pKd
1,"PELESKESVL [SLC1A4, P43007]",below the threshold

# Biological target: GRIP2_3, Q9C0E4
# Sequence (Q9C0E4 238-339): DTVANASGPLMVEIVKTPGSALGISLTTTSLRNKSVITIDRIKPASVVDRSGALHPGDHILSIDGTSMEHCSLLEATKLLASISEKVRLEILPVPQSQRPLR
# Experiment: holdup assay
# Set-up: key: below the threshold = too weak to quantify, mostly under pKd 3.1 to 4
# Conditions: plain residues with an end cap or a label only (N-terminal biotin on a linker: ado-ado)
row,Binder,pKd
1,"PELESKESVL [SLC1A4, P43007]",below the threshold

# Biological target: HTRA1, Q92743
# Sequence (Q92743 360-477): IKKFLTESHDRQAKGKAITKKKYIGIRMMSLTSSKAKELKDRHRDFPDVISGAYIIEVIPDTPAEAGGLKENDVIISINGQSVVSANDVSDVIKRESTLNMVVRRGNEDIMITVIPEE
# Experiment: holdup assay
# Set-up: key: below the threshold = too weak to quantify, mostly under pKd 3.1 to 4
# Conditions: plain residues with an end cap or a label only (N-terminal biotin on a linker: ado-ado)
row,Binder,pKd
1,"PELESKESVL [SLC1A4, P43007]",4.41

# Biological target: HTRA2, O43464
# Sequence (O43464 355-458): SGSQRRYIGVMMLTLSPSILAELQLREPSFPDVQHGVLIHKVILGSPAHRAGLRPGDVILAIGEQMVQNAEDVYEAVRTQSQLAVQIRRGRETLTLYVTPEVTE
# Experiment: holdup assay
# Set-up: key: below the threshold = too weak to quantify, mostly under pKd 3.1 to 4
# Conditions: plain residues with an end cap or a label only (N-terminal biotin on a linker: ado-ado)
row,Binder,pKd
1,"PELESKESVL [SLC1A4, P43007]",below the threshold

# Biological target: IL16_1, Q14005
# Sequence (Q14005 210-306): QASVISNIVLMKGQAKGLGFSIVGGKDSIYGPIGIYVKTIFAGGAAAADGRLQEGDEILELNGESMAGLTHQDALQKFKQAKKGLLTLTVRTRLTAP
# Experiment: holdup assay
# Set-up: key: below the threshold = too weak to quantify, mostly under pKd 3.1 to 4
# Conditions: plain residues with an end cap or a label only (N-terminal biotin on a linker: ado-ado)
row,Binder,pKd
1,"PELESKESVL [SLC1A4, P43007]",3.9

# Biological target: IL16_3, Q14005
# Sequence (Q14005 1107-1207): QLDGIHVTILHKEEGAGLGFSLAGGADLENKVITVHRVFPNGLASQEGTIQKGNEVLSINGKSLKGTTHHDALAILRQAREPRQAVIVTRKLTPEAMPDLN
# Experiment: holdup assay
# Set-up: key: below the threshold = too weak to quantify, mostly under pKd 3.1 to 4
# Conditions: plain residues with an end cap or a label only (N-terminal biotin on a linker: ado-ado)
row,Binder,pKd
1,"PELESKESVL [SLC1A4, P43007]",below the threshold

# Biological target: IL16_4, Q14005
# Sequence (Q14005 1229-1329): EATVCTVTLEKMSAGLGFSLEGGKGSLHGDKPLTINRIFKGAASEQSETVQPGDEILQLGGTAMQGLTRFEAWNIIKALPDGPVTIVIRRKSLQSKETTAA
# Experiment: holdup assay
# Set-up: key: below the threshold = too weak to quantify, mostly under pKd 3.1 to 4
# Conditions: plain residues with an end cap or a label only (N-terminal biotin on a linker: ado-ado)
row,Binder,pKd
1,"PELESKESVL [SLC1A4, P43007]",below the threshold

# Biological target: Inadl_4, Q8NI35
# Sequence (Q8NI35 547-651): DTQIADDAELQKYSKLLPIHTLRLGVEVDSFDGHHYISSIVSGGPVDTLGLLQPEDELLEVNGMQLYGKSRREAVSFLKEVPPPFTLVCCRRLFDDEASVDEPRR
# Experiment: holdup assay
# Set-up: key: below the threshold = too weak to quantify, mostly under pKd 3.1 to 4
# Conditions: plain residues with an end cap or a label only (N-terminal biotin on a linker: ado-ado)
row,Binder,pKd
1,"PELESKESVL [SLC1A4, P43007]",below the threshold

# Biological target: Inadl_8, Q8NI35
# Sequence (Q8NI35 1425-1530): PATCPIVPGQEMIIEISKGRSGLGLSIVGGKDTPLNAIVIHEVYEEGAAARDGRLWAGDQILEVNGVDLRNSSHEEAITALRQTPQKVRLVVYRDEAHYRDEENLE
# Experiment: holdup assay
# Set-up: key: below the threshold = too weak to quantify, mostly under pKd 3.1 to 4
# Conditions: plain residues with an end cap or a label only (N-terminal biotin on a linker: ado-ado)
row,Binder,pKd
1,"PELESKESVL [SLC1A4, P43007]",below the threshold

# Biological target: LIMK2, P53671
# Sequence (P53671 143-248): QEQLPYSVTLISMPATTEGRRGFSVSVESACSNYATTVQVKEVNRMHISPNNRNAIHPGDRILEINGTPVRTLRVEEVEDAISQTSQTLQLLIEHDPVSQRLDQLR
# Experiment: holdup assay
# Set-up: key: below the threshold = too weak to quantify, mostly under pKd 3.1 to 4
# Conditions: plain residues with an end cap or a label only (N-terminal biotin on a linker: ado-ado)
row,Binder,pKd
1,"PELESKESVL [SLC1A4, P43007]",below the threshold

# Biological target: T3, LIN7B, Q9HAP6
# Experiment: holdup assay
# Set-up: key: below the threshold = too weak to quantify, mostly under pKd 3.1 to 4
# Conditions: plain residues with an end cap or a label only (N-terminal biotin on a linker: ado-ado)
row,Binder,pKd
1,"PELESKESVL [SLC1A4, P43007]",below the threshold

# Biological target: T4, LNX2_2, Q8N448
# Experiment: holdup assay
# Set-up: key: below the threshold = too weak to quantify, mostly under pKd 3.1 to 4
# Conditions: plain residues with an end cap or a label only (N-terminal biotin on a linker: ado-ado)
row,Binder,pKd
1,"PELESKESVL [SLC1A4, P43007]",below the threshold

# Biological target: T5, MPP2, Q14168
# Experiment: holdup assay
# Set-up: key: below the threshold = too weak to quantify, mostly under pKd 3.1 to 4
# Conditions: plain residues with an end cap or a label only (N-terminal biotin on a linker: ado-ado)
row,Binder,pKd
1,"PELESKESVL [SLC1A4, P43007]",below the threshold

# Biological target: NHERF4_1, Q86UT5-2
# Sequence (Q86UT5 other isoform, or with tags, fused parts or gaps): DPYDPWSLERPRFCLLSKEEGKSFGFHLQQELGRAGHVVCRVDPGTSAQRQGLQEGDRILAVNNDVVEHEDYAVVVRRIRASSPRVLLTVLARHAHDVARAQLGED
# Experiment: holdup assay
# Set-up: key: below the threshold = too weak to quantify, mostly under pKd 3.1 to 4
# Conditions: plain residues with an end cap or a label only (N-terminal biotin on a linker: ado-ado)
row,Binder,pKd
1,"PELESKESVL [SLC1A4, P43007]",3.9

# Biological target: PARD3_3, Q8TEW0
# Sequence (Q8TEW0 582-685): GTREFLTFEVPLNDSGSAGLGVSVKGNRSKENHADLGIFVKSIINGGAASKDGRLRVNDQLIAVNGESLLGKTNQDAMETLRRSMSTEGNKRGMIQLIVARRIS
# Experiment: holdup assay
# Set-up: key: below the threshold = too weak to quantify, mostly under pKd 3.1 to 4
# Conditions: plain residues with an end cap or a label only (N-terminal biotin on a linker: ado-ado)
row,Binder,pKd
1,"PELESKESVL [SLC1A4, P43007]",3.87

# Biological target: T6, PCLO, Q9Y6V0
# Experiment: holdup assay
# Set-up: key: below the threshold = too weak to quantify, mostly under pKd 3.1 to 4
# Conditions: plain residues with an end cap or a label only (N-terminal biotin on a linker: ado-ado)
row,Binder,pKd
1,"PELESKESVL [SLC1A4, P43007]",below the threshold

# Biological target: PDLIM1, O00151
# Sequence (O00151 1-87): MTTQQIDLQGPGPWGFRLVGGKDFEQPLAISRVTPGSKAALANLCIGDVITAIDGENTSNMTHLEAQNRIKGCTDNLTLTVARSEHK
# Experiment: holdup assay
# Set-up: key: below the threshold = too weak to quantify, mostly under pKd 3.1 to 4
# Conditions: plain residues with an end cap or a label only (N-terminal biotin on a linker: ado-ado)
row,Binder,pKd
1,"PELESKESVL [SLC1A4, P43007]",3.59

# Biological target: T7, PDZRN3_1, Q9UPQ7
# Experiment: holdup assay
# Set-up: key: below the threshold = too weak to quantify, mostly under pKd 3.1 to 4
# Conditions: plain residues with an end cap or a label only (N-terminal biotin on a linker: ado-ado)
row,Binder,pKd
1,"PELESKESVL [SLC1A4, P43007]",4.46

# Biological target: T8, RHPN1, Q8TCX5
# Experiment: holdup assay
# Set-up: key: below the threshold = too weak to quantify, mostly under pKd 3.1 to 4
# Conditions: plain residues with an end cap or a label only (N-terminal biotin on a linker: ado-ado)
row,Binder,pKd
1,"PELESKESVL [SLC1A4, P43007]",4.49

# Biological target: T9, SNTA1, Q13424
# Experiment: holdup assay
# Set-up: key: below the threshold = too weak to quantify, mostly under pKd 3.1 to 4
# Conditions: plain residues with an end cap or a label only (N-terminal biotin on a linker: ado-ado)
row,Binder,pKd
1,"PELESKESVL [SLC1A4, P43007]",4.7

# Biological target: T10, SNTG2, Q9NY99
# Experiment: holdup assay
# Set-up: key: below the threshold = too weak to quantify, mostly under pKd 3.1 to 4
# Conditions: plain residues with an end cap or a label only (N-terminal biotin on a linker: ado-ado)
row,Binder,pKd
1,"PELESKESVL [SLC1A4, P43007]",4.09

# Biological target: SNX27, Q96L92
# Experiment: holdup assay
# Set-up: key: below the threshold = too weak to quantify, mostly under pKd 3.1 to 4
# Conditions: plain residues with an end cap or a label only (N-terminal biotin on a linker: ado-ado)
row,Binder,pKd
1,"PELESKESVL [SLC1A4, P43007]",5.43

# Biological target: T11, TX1BP3, O14907
# Experiment: holdup assay
# Set-up: key: below the threshold = too weak to quantify, mostly under pKd 3.1 to 4
# Conditions: plain residues with an end cap or a label only (N-terminal biotin on a linker: ado-ado)
row,Binder,pKd
1,"PELESKESVL [SLC1A4, P43007]",4.1
